In paper PMC8402574:

Molecular target: NG19 (Non-Glycosylated protein of 19 kDa, S371 to F541 of the SARS-CoV-2 Spike protein RBD) (SARS-CoV-2) (UniProt P0DTC2)
Test: Tricine-SDS-PAGE under non-reducing conditions

“NG19 (Non-Glycosylated protein of 19 kDa, S371 to F541 of the SARS-CoV-2 Spike protein RBD) (from UniProt P0DTC2 371-541) (domain or fragment)” showed a stoichiometry N of 2.
